According to patent US20230192860A1 (Bristol-Myers Squibb, published 2023):

Tests used:
[1] = target: T1, monovalent hVISTA-ECD (amino acids 32-193 of SEQ ID NO: 1 with a 7xHis tail) (human, UniProt Q9H7M9 33-193); test: SPR, pH 7.4 over pH 6.0
T1 construct: analyte of the SPR assays; also called huVISTA-His; human VISTA-ECD
Method in brief: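 Antibodies at 50 nM in PBST pH 7.4 were captured on a Protein A CM5 chip; an 8-point human VISTA titration (100 to 7.8 nM) in PBST at pH 7.4, 6.9, 6.45 or 6.0 was injected for 180 seconds at 30 µL/min. Kinetic constants came from 1:1 binding fits of sensorgrams.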

[2] = target: T1, monovalent hVISTA-ECD (amino acids …); test: SPR 37C, Ab on Protein A, hVISTA-ECD 50-0.2 nM, pH 6.0
Description: Surface plasmon resonance (SPR) analysis was performed to measure the association rates (defined as ka or kₒₙ, 1/Ms units), dissociation rates (defined as kd or koff, s⁻¹ units) and affinity constants (defined as KD, M units) for VISTA Abs at acidic and physiological pHs using a Biacore® T200 instrument (GE Healthcare). […] Antibodies were diluted to 20 nM in PBST pH 7.4, and were captured across active biosensor flow cells at 5 ul/min for 50 seconds. A concentration series of 50 - 0.2 nM monovalent hVISTA-ECD (SEQ ID NO: 325) was prepared in pH 7.4 and 6.0 running buffers, and was injected over the captured antibodies at 40 ul/min to measure association and dissociation. Two 15 second injections of 10 mM glycine pH 1.5 were used to regenerate the Protein A capture surface between assay cycles. Rate constants kₐ (kₒₙ) and kd (kₒff) were derived from reference flow cell and 0 nM blank-subtracted sensorgrams, and were fit to a 1:1 binding model in Biacore® T200 Evaluation Software v.2.0.

[3] = target: T1, monovalent hVISTA-ECD (amino acids …); test: SPR, Ab on Protein A, hVISTA 100-7.8 nM, pH 7.4
[4] = target: T1, monovalent hVISTA-ECD (amino acids …); test: SPR 37C, Ab on Protein A, hVISTA-ECD 50-5 nM, pH 7.4, average
Description: Binding of several preparations of each of the ‘029 progeny clones and of the parent ‘029 antibodies, formatted as IgG1.3 antibodies, to human VISTA at pH 6.0 and 7.4 was measured by Surface plasmon resonance (SPR). SPR analysis was performed to measure koff and KD binding affinity measurements for VISTA Abs at acidic and neutral pHs using a Biacore® T100 instrument (GE Healthcare). […] Antibodies were diluted to 25 nM in PBST pH 7.4, and were captured across active biosensor flow cells at 5 ul/min for 60 seconds. A concentration series of 50 - 5 nM monovalent hVISTA-ECD (SEQ ID NO: 325) was prepared in pH 7.4 and 6.0 running buffers, and was injected over the captured antibodies at 40 ul/min to measure association and dissociation. Two 15 second injections of 10 mM glycine pH 1.5 were used to regenerate the Protein A capture surface between assay cycles. Rate constants ka (kₒₙ) and kd (koff) were derived from reference flow cell and 0 nM blank-subtracted sensorgrams, and were fit to a 1:1 binding model in Biacore® T200 Evaluation Software v.2.0. The affinity constant, KD was calculated as the ratio of rate constants koff/kₒₙ for each VISTA antibody.

T1 sequence (Q9H7M9 other isoform, or with tags, fused parts or gaps limits assumed): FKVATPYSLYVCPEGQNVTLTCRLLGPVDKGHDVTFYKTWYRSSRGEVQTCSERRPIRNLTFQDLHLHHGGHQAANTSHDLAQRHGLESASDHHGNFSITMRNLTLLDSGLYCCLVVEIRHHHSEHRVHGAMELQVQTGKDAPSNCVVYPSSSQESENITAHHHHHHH

- 7.4 KD/ 6.0 KD [1]: 4.5
- 7.4 kd/ 6.0 kd [1]: 1.1
- koff [2]: 0.0048 s⁻¹
- Kd [3]: 13 nM
- koff [3]: 0.00603 s⁻¹
- kon [3]: 463000 M⁻¹ s⁻¹
- Kd [4]: 19 nM
- koff [4]: 0.0056 s⁻¹
- kon [4]: 290000 M⁻¹ s⁻¹
B1: P1-061029.IgG1.3 (antibody)
heavy: EVQLVESGGGLVQPGKSLRLSCAASGFTLDDYAMHWVRQAPGKGLEWVSGINWNSANIGYADSVKGRFTISRDNAKNSLYLQMNSLRTEDTALYYCAKVPGYSGGWIDAFDVWGQGTMVTVSSASTKGPSVFPLAPSSKSTSGGTAALGCLVKDYFPEPVTVSWNSGALTSGVHTFPAVLQSSGLYSLSSVVTVPSSSLGTQTYICNVNHKPSNTKVDKRVEPKSCDKTHTCPPCPAPEAEGAPSVFLFPPKPKDTLMISRTPEVTCVVVDVSHEDPEVKFNWYVDGVEVHNAKTKPREEQYNSTYRVVSVLTVLHQDWLNGKEYKCKVSNKALPAPIEKTISKAKGQPREPQVYTLPPSREEMTKNQVSLTCLVKGFYPSDIAVEWESNGQPENNYKTTPPVLDSDGSFFLYSKLTVDKSRWQQGNVFSCSVMHEALHNHYTQKSLSLSPG
light: not shown
notes: IgG1.3; also called P1-061029 (parent); P1-061029-18
